# According to US20170152290A1 (CENTRO DE INGENIERIA GEN TICA Y BIOTECHNOLOGIA, published 2017):
# B1: Receptor-Associated Protein (RAP) (ligand, UniProt P30533 35-357, looked up)
# chain: YSREKNQPKPSPKRESGEEFRMEKLNQLWEKAQRLHLPPVRLAELHADLKIQERDELAWKKLKLDGLDEDGEKEARLIRNLNVILAKYGLDGKKDARQVTSNSLSGTQEDGLDDPRLEKLWHKAKTSGKFSGEELDKLWREFLHHKEKVHEYNVLLETLSRTEEIHENVISPSDLSDIKGSVLHSRHTELKEKLRSINQGLDRLRRVSHQGYSTEAEFEEPRVIDLWDLAQSANLTDKELEAFREELKHFEAKIEKHNHYQKQLEIAHEKLRHAESVGDGERVSRSREKHALLEGRTKELGYTVKKHLQDLSGRISRARHNEL
# B2: DIIIE1PRS alanine mutant, variant E375 (other)
# chain: MDKLTLKGMSYVMCTGSFKLEKEVAETQHGTVLVQVKYEGTDAPCKIPFSTQDEKGVTQNGRLITANPIVTDKEKPVNIETEPPFGASYIVVGAGEKALKLSWFKKGSSIGVDHHHHHH
# notes: also called Glu375 to Ala
# B3: DIIIE1PRS alanine mutant, variant V365 (other)
# chain: MDKLTLKGMSYVMCTGSFKLEKEVAETQHGTVLVQVKYEGTDAPCKIPFSTQDEKGVTQNGRLITANPIVTDKEKPANIETEPPFGESYIVVGAGEKALKLSWFKKGSSIGVDHHHHHH
# notes: also called Val365 to Ala
# B4: DIIIE1PRS alanine mutant, variant G374 (other)
# chain: MDKLTLKGMSYVMCTGSFKLEKEVAETQHGTVLVQVKYEGTDAPCKIPFSTQDEKGVTQNGRLITANPIVTDKEKPVNIETEPPFAESYIVVGAGEKALKLSWFKKGSSIGVDHHHHHH
# notes: also called Gly374 to Ala
# B5: DIIIE1PRS alanine mutant, variant R350 (other)
# chain: MDKLTLKGMSYVMCTGSFKLEKEVAETQHGTVLVQVKYEGTDAPCKIPFSTQDEKGVTQNGALITANPIVTDKEKPVNIETEPPFGESYIVVGAGEKALKLSWFKKGSSIGVDHHHHHH
# notes: also called Arg350 to Ala
# B6: DIIIE1PRS alanine mutant, variant K385 (other)
# chain: MDKLTLKGMSYVMCTGSFKLEKEVAETQHGTVLVQVKYEGTDAPCKIPFSTQDEKGVTQNGRLITANPIVTDKEKPVNIETEPPFGESYIVVGAGEAALKLSWFKKGSSIGVDHHHHHH
# notes: also called Lys385 to Ala
# B7: DIIIE1PRS alanine mutant, variant E362 (other)
# chain: MDKLTLKGMSYVMCTGSFKLEKEVAETQHGTVLVQVKYEGTDAPCKIPFSTQDEKGVTQNGRLITANPIVTDKAKPVNIETEPPFGESYIVVGAGEKALKLSWFKKGSSIGVDHHHHHH
# B8: DIIIE1PRS alanine mutant, variant T346 (other)
# chain: MDKLTLKGMSYVMCTGSFKLEKEVAETQHGTVLVQVKYEGTDAPCKIPFSTQDEKGVAQNGRLITANPIVTDKEKPVNIETEPPFGESYIVVGAGEKALKLSWFKKGSSIGVDHHHHHH
# B9: DIIIE1PRS alanine mutant, variant K363 (other)
# chain: MDKLTLKGMSYVMCTGSFKLEKEVAETQHGTVLVQVKYEGTDAPCKIPFSTQDEKGVTQNGRLITANPIVTDKEAPVNIETEPPFGESYIVVGAGEKALKLSWFKKGSSIGVDHHHHHH
# notes: also called Lys363 to Ala
# B10: DIIIE1PRS alanine mutant, variant N366 (other)
# chain: MDKLTLKGMSYVMCTGSFKLEKEVAETQHGTVLVQVKYEGTDAPCKIPFSTQDEKGVTQNGRLITANPIVTDKEKPVAIETEPPFGESYIVVGAGEKALKLSWFKKGSSIGVDHHHHHH
# notes: also called Asn366 to Ala
# B11: DIIIE1PRS alanine mutant, variant E342 (other)
# chain: MDKLTLKGMSYVMCTGSFKLEKEVAETQHGTVLVQVKYEGTDAPCKIPFSTQDAKGVTQNGRLITANPIVTDKEKPVNIETEPPFGESYIVVGAGEKALKLSWFKKGSSIGVDHHHHHH
# notes: also called Glu342 to Ala
# B12: DIIIE1PRS alanine mutant, variant P372 (other)
# chain: MDKLTLKGMSYVMCTGSFKLEKEVAETQHGTVLVQVKYEGTDAPCKIPFSTQDEKGVTQNGRLITANPIVTDKEKPVNIETEPAFGESYIVVGAGEKALKLSWFKKGSSIGVDHHHHHH
# notes: also called Pro372 to Ala
# B13: DIIIE1PRS alanine mutant, variant K361 (other)
# chain: MDKLTLKGMSYVMCTGSFKLEKEVAETQHGTVLVQVKYEGTDAPCKIPFSTQDEKGVTQNGRLITANPIVTDAEKPVNIETEPPFGESYIVVGAGEKALKLSWFKKGSSIGVDHHHHHH
# notes: also called Lys361 to Ala
# B14: DIIIE1PRS alanine mutant, variant P364 (other)
# chain: MDKLTLKGMSYVMCTGSFKLEKEVAETQHGTVLVQVKYEGTDAPCKIPFSTQDEKGVTQNGRLITANPIVTDKEKAVNIETEPPFGESYIVVGAGEKALKLSWFKKGSSIGVDHHHHHH
# Molecular target: recombinant Human Serum Albumin (rHSA) (human, UniProt P02768 25-609)
# Experiment: SPR (Biacore X), CM5 chip, sLRP1-CIV immobilised on Fc1 and rHSA on Fc2, analyte at 100 nM
row,Binder,binding result
1,B1,no binding (tested: 100 nM)

# Molecular target: T1, activated human alfa-2-macroglobulin (α2M_MeNH2) (human, UniProt P01023 24-1474)
# T1 construct: mature
# T1 sequence (looked up): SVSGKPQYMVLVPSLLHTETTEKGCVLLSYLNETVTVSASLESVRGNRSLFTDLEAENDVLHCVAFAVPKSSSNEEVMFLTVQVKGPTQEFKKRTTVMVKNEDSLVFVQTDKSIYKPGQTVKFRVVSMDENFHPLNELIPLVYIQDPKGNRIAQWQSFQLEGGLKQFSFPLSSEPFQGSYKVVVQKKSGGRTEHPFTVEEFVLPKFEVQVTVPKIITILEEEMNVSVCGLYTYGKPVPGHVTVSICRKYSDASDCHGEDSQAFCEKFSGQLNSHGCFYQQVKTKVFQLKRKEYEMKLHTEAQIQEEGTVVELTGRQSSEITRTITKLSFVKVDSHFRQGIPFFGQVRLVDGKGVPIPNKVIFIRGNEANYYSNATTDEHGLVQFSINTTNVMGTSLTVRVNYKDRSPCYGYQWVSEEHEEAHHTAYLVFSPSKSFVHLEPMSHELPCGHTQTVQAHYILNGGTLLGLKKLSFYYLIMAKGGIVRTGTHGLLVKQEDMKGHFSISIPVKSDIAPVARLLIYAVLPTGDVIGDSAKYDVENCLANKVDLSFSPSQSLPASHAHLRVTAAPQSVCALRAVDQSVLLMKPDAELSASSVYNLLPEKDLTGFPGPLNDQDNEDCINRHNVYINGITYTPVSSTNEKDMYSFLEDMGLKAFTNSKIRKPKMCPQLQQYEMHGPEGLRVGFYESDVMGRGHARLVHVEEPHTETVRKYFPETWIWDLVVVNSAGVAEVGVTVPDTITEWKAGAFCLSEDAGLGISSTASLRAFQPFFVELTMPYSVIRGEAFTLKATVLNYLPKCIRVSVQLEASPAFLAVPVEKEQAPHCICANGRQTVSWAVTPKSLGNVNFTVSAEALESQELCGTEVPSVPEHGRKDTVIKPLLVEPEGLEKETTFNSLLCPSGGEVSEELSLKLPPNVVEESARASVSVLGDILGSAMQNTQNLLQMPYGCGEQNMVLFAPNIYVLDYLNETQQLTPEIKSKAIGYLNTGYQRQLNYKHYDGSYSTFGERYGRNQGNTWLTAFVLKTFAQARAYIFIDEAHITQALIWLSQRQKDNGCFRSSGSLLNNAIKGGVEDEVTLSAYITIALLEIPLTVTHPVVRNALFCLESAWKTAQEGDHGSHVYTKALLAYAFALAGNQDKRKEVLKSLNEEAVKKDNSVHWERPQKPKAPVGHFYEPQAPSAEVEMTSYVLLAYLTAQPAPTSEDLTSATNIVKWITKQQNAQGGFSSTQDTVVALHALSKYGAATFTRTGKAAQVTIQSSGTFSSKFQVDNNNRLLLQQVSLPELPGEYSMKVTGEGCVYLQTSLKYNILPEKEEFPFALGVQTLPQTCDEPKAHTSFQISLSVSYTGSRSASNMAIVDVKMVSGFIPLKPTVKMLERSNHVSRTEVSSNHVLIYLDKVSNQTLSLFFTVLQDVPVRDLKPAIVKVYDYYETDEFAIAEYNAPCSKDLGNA
# Experiment: competition ELISA, α2M* coated, DIIIE1PRSbiot as labelled ligand
Binder,fold increase of IC50 against wild-type DIIIE1PRS [fold],fold reduction of affinity against wild-type DIIIE1PRS [fold]
B2,≥ 2,–
B3,> 10,–
B4,≥ 2,–
B5,≥ 2,–
B6,> 10,> 22
B7,> 10,–
B8,≥ 2,–
B9,≥ 2,–
B10,≥ 2,–
B11,≥ 2,–
B12,≥ 2,–
B13,> 10,–
B14,> 10,–
